How the values were obtained:
[1] = tested on: HIV-1 R5 B-93US142; type: cell-based; details: virus preincubated 1 h with hBD in 10 mM PB; GHOST cells 48 h; GFP fluorescence
Experimental: (§1) HIV-1 strains (X4 HXB2 and R5 93US142) were incubated in 10 mM PB with increasing concentrations of hBD and used to infect GHOST X4/R5 cells. (a) Qualitative determination of HIV-1 infection, measured by GFP fluorescence, in the absence (−C) and presence (+C) of virus preincubated in 10 mM PB. (b) Anti-HIV-1 activity of hBD in GHOST X4/R5 cells using fluorescence microscopy. (c) Anti-HIV-1 activity of hBD measured by RT activity in cell-free culture supernatant, relative to the positive control (i.e., HIV-1 infection in the absence of hBD). (d) Antiretroviral activity of hBD against CXCR4- and CCR5-tropic HIV-1 strains in three different environments: DMEM+10% FBS (complete medium); DMEM alone (Medium no FBS); 10 mM PB. Viruses were incubated with 20 μg/ml of each hBD for 1 h in each condition and used to infect CEM X4/R5 cells as described. Results are representative of three independent experiments.
(§2) HIV-1 isolates were incubated with increasing concentrations (5-40 μg/ml) of hBD-1, -2, and -3, in three different conditions: high salt complete medium (RPMI-1640 or DMEM supplemented with 10% fetal bovine serum, FBS); high salt medium in the absence of FBS; or low salt medium (10 mM phosphate buffer), 37° C. for 1 h. Respective mixtures were used to infect PBMC, Ghost X4/R5 or CEM X4/R5 cells at an MOI of […]. After 2 h incubation at 37° C., 5% CO2, cells were washed three times with phosphate-buffered saline (PBS) and cultured in complete medium for 48 h. In the case of Ghost X4/R5 cells, these were washed, resuspended in PBS, and analyzed by fluorescence microscopy for GFP expression as described [Morner et al.]. Cell-free supernatants from PBMC, Ghost X4/R5 and CEM X4/R5 cultures were used to monitor infectivity by the reverse transcriptase (RT) assay [Quinones-Mateu et al.]. The 50% inhibitory concentration (IC50) of each hBD was determined using X4 or R5 HIV-1 isolates. Viruses (0.01 MOI) were incubated with increasing concentrations of hBD-1, -2, and 3 (up to 40 µg/ml) in low salt medium for 1 h and used to infect CEM X4/R5 cells. After 2 h incubation at 37° C., 5% CO2, cells were washed twice with PBS and cultured in complete medium. Supernatant samples were removed on day 5 post-infection and virus production was measured using […] the RT assay [Id.]. Cytotoxicity of hBD was quantified by determining the number of viable cells using a tetrazolium-based colorimetric (MTT) assay [Pauwels et al.].
(§3) Since the antibacterial activity of beta-defensins is sensitive to high salt and serum concentrations, the anti-HIV-1 activity of hBD was initially evaluated in a low salt, serum free environment, mimicking oral mucosal conditions [Mandel et al.]. Two HIV-1 isolates (X4 B-HXB2 and R5 B-93US142) were preincubated for 1 h with increasing concentrations of recombinant hBD-1, -2, and -3, in 10 mM phosphate buffer (PB). GHOST CCR5/CXCR4 cells were then exposed to the mixtures for 48 h in complete medium. […] When CXCR4- and CCR5-tropic HIV-1 strains were preincubated with beta-defensins in high salt medium (DMEM) supplemented with 10% FBS, no antiviral effect was detected (FIG. 4d). However, preincubation in DMEM without FBS inhibited replication of X4, but not R5, HIV-1 isolates (FIG. 4d). Under low salt conditions (i.e., 10 mM PB, no FBS) the 50% inhibitory concentration for both agents against X4 and R5 viruses ranged from 9 to 19 μg/ml and 20 to 40 μg/ml, respectively.

[2] = tested on: HIV-1 X4 B-HXB2; type: cell-based; details: virus preincubated 1 h with hBD in 10 mM PB; GHOST cells 48 h; GFP fluorescence
Experimental: as §1, §2, §3

[3] = tested on: CEM X4/R5 cells; experiment: Confocal microscopy, localisation of hBD on CEM X4/R5 cells; type: cell-based, human; details: live cells incubated with hBD, then anti-hBD antibodies
Experimental: (§4) CEM X4/R5 cells were grown in RPMI-1640 medium containing 5% FBS and 400 μg/ml G418. Cells were collected, washed twice with PBS, resuspended in RPMI with 0.5% FBS or supplemented with 20 μg/ml recombinant hBD-2 or -3, and incubated at 37° C., 5% CO2 for 3 h. A second aliquot of cells, after incubation with hBD, was treated with FACS/Perm (PharMingen) at room temperature for 10 min and then washed three times with PBS. A third aliquot of cells was fixed in 1% paraformaldehyde on ice for 30 min, washed three times with PBS, and then incubated with 20 μg/ml hBD-2 or -3. Cells were stained with PE-labeled CXCR4 or CCR5 (PharMingen), or with primary goat anti-hBD-2 antibodies (Cell Sciences, Norwood, Mass., USA), or with rabbit anti-hBD-3 antibodies (Orbingen, San Diego, Calif., USA) at room temperature for 90 min, followed by washing three times with PBS. Fluorescein isothiocyanate-labeled rabbit anti-goat IgG (Jackson ImmunoResearch, West Grove, Pa., USA) for detection of hBD-2, or goat anti-rabbit IgG (Sigma) for detection of hBD-3, were added, respectively, at room temperature and incubated for 90 min. […] All samples were observed using a dual scanning confocal microscope system (Zeiss LSM 510, Oberkochem, Germany) and analyzed with the Zeiss LSM 5 Image Browser. […]

[4] = target: CCR5 (Homo sapiens, UniProt P51681); experiment: Confocal microscopy of co-receptor surface expression on CEM X4/R5 cells; type: cell-based; parameters: endogenous in cells; details: 20 μg/ml, 3 h
CCR5, sequence (P51681 whole entry): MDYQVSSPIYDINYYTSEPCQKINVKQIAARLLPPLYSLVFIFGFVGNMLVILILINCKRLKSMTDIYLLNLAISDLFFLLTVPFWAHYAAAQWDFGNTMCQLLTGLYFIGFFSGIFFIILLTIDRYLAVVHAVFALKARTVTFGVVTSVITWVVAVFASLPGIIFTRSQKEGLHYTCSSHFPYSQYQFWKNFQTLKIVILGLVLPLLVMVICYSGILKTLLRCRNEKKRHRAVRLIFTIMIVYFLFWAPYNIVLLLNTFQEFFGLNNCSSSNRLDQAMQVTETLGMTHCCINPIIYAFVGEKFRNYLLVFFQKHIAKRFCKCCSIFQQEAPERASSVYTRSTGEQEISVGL
Experimental: as §4

[5] = target: CXCR4 (Homo sapiens, UniProt P61073); experiment: as above; type: cell-based; parameters: endogenous in cells; details: 20 μg/ml, 3 h
CXCR4, sequence (P61073 whole entry): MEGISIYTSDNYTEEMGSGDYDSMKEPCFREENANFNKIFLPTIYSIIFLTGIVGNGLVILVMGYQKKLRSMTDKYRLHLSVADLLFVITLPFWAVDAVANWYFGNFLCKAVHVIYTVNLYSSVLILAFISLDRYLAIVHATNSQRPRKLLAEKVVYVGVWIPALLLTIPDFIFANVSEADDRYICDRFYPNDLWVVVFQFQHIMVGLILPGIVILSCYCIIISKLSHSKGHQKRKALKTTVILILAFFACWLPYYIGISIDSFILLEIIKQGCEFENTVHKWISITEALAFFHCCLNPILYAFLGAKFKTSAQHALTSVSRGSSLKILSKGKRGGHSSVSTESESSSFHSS
Experimental: as §4

B1: hBD-3: Recombinant human β-defensin 3 produced using an hBD-3-His tag fusion construct cloned into pET-30c; exemplary sequence SEQ ID NO:15 (protein, listed as Homo sapiens)
chain: MRIHYLLFALLFLFLVPVPGHGGIINTLQKYYCRVRGGRCAVLSCLPKEEQIGKCSTRGRKCCRRKK
modifications: not fully specified (C-terminus); ends and bridges not checked
In the case of B1, the anti-HIV-1 activity [1] is reported as “showed anti-HIV-1 activity”, the anti-HIV-1 activity [2] is reported as “showed anti-HIV-1 activity” and the “detection of peptide on the cell surface” value [3] is reported as “failed to detect”. The “surface expression of CCR5” value [4] was “not” and the “surface expression of CXCR4” value [5] was “dramatically decreased”.

Reference: US7442375B2, “Compositions of beta-defensin inducing agents” (Case Western Reserve University, priority 2002, dated 2008)
